Molecular target: T1, human PTK7-Ig3-4-His (human, UniProt Q13308 221-409, limits assumed)
T1 construct: domain: Ig3-4; Made from the hPTK7-Ig1-4-His construct by DpnI-mediated deletion mutagenesis; expressed in HEK293 cells; also called hPTK7-Ig3-4-His; STK7-lg3-4-His [sic]
T1 sequence: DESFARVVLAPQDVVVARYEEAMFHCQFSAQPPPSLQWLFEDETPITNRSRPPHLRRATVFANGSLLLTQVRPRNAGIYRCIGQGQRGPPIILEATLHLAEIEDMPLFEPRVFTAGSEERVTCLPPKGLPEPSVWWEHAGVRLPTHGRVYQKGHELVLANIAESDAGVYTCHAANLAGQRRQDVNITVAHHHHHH
Test: Ni-NTA pull-down of His-tagged construct incubated with mAb at 1:1 molar ratio, western blot

B1: anti-PTK7 mAb-52 (antibody, V domains shown)
VH: EVQLQQSGAELVKPGASVKLSCTASGFNIEDTYIHWVKQRPEQGLEWIGRIDPANGNDKYDPKFQGKATITADTSSNTAYLQLSSLTSEDTAVYYCARGDANYGSYWGQGTLVTVSA
VL: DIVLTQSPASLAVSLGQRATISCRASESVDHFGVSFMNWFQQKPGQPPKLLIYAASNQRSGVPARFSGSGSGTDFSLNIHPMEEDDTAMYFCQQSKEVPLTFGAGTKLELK
notes: Mouse monoclonal antibody from a hybridoma raised against purified human sPTK7, purified from ascites
  binding result: no binding
